Source: the supplement of paper PMC7877785
± gives the uncertainty stated by the source.

Experiment: self-splicing fitness, log relative to wild type (ln ratio); higher = more splicing; Tetrahymena group I intron in knt gene, E. coli kanamycin selection, DiMSum; sequences stand for … in CUCUCU…GGAGGGAAAAGUUAUCAGGCAUGCACCUGGUAGCUAGUCUUUAAACCAAUAGAUUGCAUCGGUUUAAAAGGCAAGACCGUCAAAUUGCGGGAAAGGGGUCAACAGCCGUUCAGUACCAAGUCUCAGGGGAAACUUUGAGAUGGCCUUGCAAAGGGUAUGGUAAUAAGCUGACGGACAUGGUCCUAACCACGCAGCCAAGUCCUAAGUCAACAGAUCUUCUGUUGAUAUGGAUGCAGUUCACAGACUAAAUGUCGGUCGGGGAAGAUGUAUUCUUCUCAUAAGAUAUAGUCGGACCUCUCCUUAAUGGGAGCUAGCGGAUGAAGUGAUGCAACACUGGAGCCGCUGGGAACUAAUUUGUAUGCGAAAGUAUAUUGAUUAGUUUUGGAGUACUCGUGGUCG
Summary of the method: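 Pooled colonies went to amplicon sequencing on an Illumina HiSeq 2500 after six replicate transformations. The plates were LB agar with 100 μg/mL carbenicillin, 50 μM IPTG and 0.2% rhamnose, with or without 25 μg/mL kanamycin, incubated overnight at 37°C or 30°C. The E. coli BL21(DE3) library had all eight P1ex-region intron nucleotides randomised, the intron placed in the knt kanamycin-resistance gene on pET-22b(+). DiMSum fitness is the error-weighted combination of replicate fold changes, kanamycin against none, normalised to wild type.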

Sequence	self-splicing fitness (ln) (30 °C)	self-splicing fitness (ln) (37 °C)
GCUUAGCAAUAUUACGGACG	-1.15 ± 0.13	0.122 ± 0.18
CAGCAGCAAUAUUACGUGGC	-3.81 ± 0.25	-1.67 ± 0.23
CCCUAGCAAUAUUACGACAA	-3.22 ± 0.35	-2.1 ± 0.28
AUUGAGCAAUAUUACGCCGG	-2.87 ± 0.33	-2.53 ± 0.48
CAUCAGCAAUAUUACGACGC	-2.37 ± 0.23	-1.23 ± 0.26
CGUAAGCAAUAUUACGCUAC	–	-1.98 ± 0.4
GGCUAGCAAUAUUACGGUAU	-0.65 ± 0.061	0.376 ± 0.084
CUAGAGCAAUAUUACGUUCA	-3.21 ± 0.24	-1.36 ± 0.29
CCUCAGCAAUAUUACGCCGG	-3.32 ± 0.21	-0.587 ± 0.15
GGCCAGCAAUAUUACGUGAU	-1.31 ± 0.075	-0.482 ± 0.097
CUGAAGCAAUAUUACGAUGA	-3.52 ± 0.21	-1.92 ± 0.16
GUACAGCAAUAUUACGACGG	-3.75 ± 0.22	-2.89 ± 0.21
AGAUAGCAAUAUUACGCAUA	-2.23 ± 0.16	-0.55 ± 0.18
CAGCAGCAAUAUUACGUAAU	-2.34 ± 0.16	-1.91 ± 0.15
UGAUAGCAAUAUUACGUUUA	-2.2 ± 0.12	-0.742 ± 0.1
ACUAAGCAAUAUUACGACAU	-0.431 ± 0.011	-0.0773 ± 0.032
AGAAAGCAAUAUUACGAAAA	-1.74 ± 0.13	-0.577 ± 0.15

Sequence	self-splicing fitness (ln) (30 °C)	self-splicing fitness (ln) (37 °C)
AACCAGCAAUAUUACGGGGU	-3.73 ± 0.14	-2.88 ± 0.16
CUGGAGCAAUAUUACGCCCA	–	-2.1 ± 0.5
UCCCAGCAAUAUUACGACGU	-1.53 ± 0.071	-0.16 ± 0.084
CCCUAGCAAUAUUACGUGUG	-4.41 ± 0.24	-2.43 ± 0.13
ACGAAGCAAUAUUACGGCUC	-3.05 ± 0.22	-1.62 ± 0.23
GCAAAGCAAUAUUACGAAGC	-1.83 ± 0.25	-2.28 ± 0.34
UUGAAGCAAUAUUACGUAUA	-1.25 ± 0.11	-0.207 ± 0.14
CAUGAGCAAUAUUACGAUGC	-3.19 ± 0.17	-1.89 ± 0.2
CGGGAGCAAUAUUACGCGGC	-2.4 ± 0.43	-1.77 ± 0.3
AUUCAGCAAUAUUACGCAAU	-2.4 ± 0.23	-0.772 ± 0.22
CGACAGCAAUAUUACGUGGA	-3.38 ± 0.17	-3.17 ± 0.18
CAGUAGCAAUAUUACGACCG	0.558 ± 0.16	-0.0835 ± 0.2
ACUAAGCAAUAUUACGAGCU	-0.626 ± 0.079	-0.478 ± 0.087
CUGGAGCAAUAUUACGAAAG	-3.51 ± 0.4	–
GGCAAGCAAUAUUACGUGGG	-3.42 ± 0.13	-1.85 ± 0.1
UCUUAGCAAUAUUACGGGGC	-3.82 ± 0.3	-3.03 ± 0.27
CGGAAGCAAUAUUACGCUUA	–	-2.15 ± 0.32
